± gives the standard deviation of the averaged measurements.
Tested on: ATP
Assay: switch fluorescence ratio, 500 uM ATP over buffer (Cy3 cluster intensity, sum of 5 cycles each) (fold (ratio)); higher = stronger signal-on switching upon ATP binding; sequences stand for … in TCGTCGGCAGCGTCAGATGTGTATAAGAGACAGTTTTTTTTTTTTTTTTTTTTTTTTT…TC
Settings: aptamer strand: ATP DNA aptamer (quencher-CACCTGGGGGAGTATTGCGGAGGAAGG + anchor), 100 nM annealed; ATP concentration: 500 uM
How it was run: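 Switching-strand clusters labelled with Cy3 on a modified Illumina MiSeq flow-cell were annealed to 100 nM quencher-labelled ATP aptamer, imaged in selection buffer, and re-imaged after 15 min with 500 uM ATP at 22 °C. This was done over five cycles with NaOH stripping and re-annealing in between. The fluorescence ratio is summed target-cycle over summed buffer-cycle Cy3 intensity per cluster, averaged per switch-domain sequence, excluding clusters outside 100-1000 RFU.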
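Note: ATP exposure 15 min at 22 °C before imaging.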

| Sequence | switch fluorescence ratio |
| --- | --- |
| GTGGGTGGGT | 1 ± 0.025 |
| GTGGGTTGGT | 1.008 ± 0.0054 |
| GTGGTATCAT | 0.978 ± 0.03 |
| GTGGTATGCA | 1.02 ± 0.074 |
| GTGGTCGCTG | 0.982 ± 0.019 |
| GTGGTGTGGT | 0.982 ± 0.011 |
| GTGGTTCCTG | 0.967 ± 0.015 |
| GTGGTTCGGG | 0.975 ± 0.029 |
| GTGGTTGGAA | 0.963 ± 0.022 |
| GTGGTTTTAT | 0.979 ± 0.013 |
| GTGGTTTTGA | 0.9832 ± 0.0064 |
| GTGTAAAGGC | 0.96 ± 0.021 |
| GTGTAAGACC | 1.03 ± 0.027 |
| GTGTAATGGT | 1.03 ± 0.021 |
| GTGTAATTAT | 0.9697 ± 0.0055 |
| GTGTACCGGA | 0.9813 ± 0.0017 |
| GTGTACTCAT | 1.01 ± 0.035 |
| GTGTATAGAG | 0.99 ± 0.051 |
| GTGTATAGTT | 1.02 ± 0.056 |
| GTGTATTAGT | 0.9656 ± 0.003 |
| GTGTATTATT | 0.976 ± 0.02 |
| GTGTATTGGT | 0.983 ± 0.024 |
| GTGTCAGTTG | 0.93646 ± 0.00087 |

| Sequence | switch fluorescence ratio |
| --- | --- |
| GTGTCCGGGC | 0.979 ± 0.025 |
| GTGTGAAAAC | 1.02 ± 0.02 |
| GTGTGAGATT | 1.02 ± 0.024 |
| GTGTGAGTAG | 1.02 ± 0.039 |
| GTGTGATCTC | 0.992 ± 0.046 |
| GTGTGGAGGG | 1.016 ± 0.0016 |
| GTGTGGCAGG | 0.992 ± 0.024 |
| GTGTGGGAAG | 1.01 ± 0.028 |
| GTGTGGGGAT | 1 ± 0.044 |
| GTGTGGGGCT | 1 ± 0.019 |
| GTGTGTAGGG | 0.999 ± 0.039 |
| GTGTGTCCGG | 0.987 ± 0.026 |
| GTGTGTCTGT | 0.991 ± 0.021 |
| GTGTGTGGCT | 0.976 ± 0.051 |
| GTGTGTTAAC | 0.9738 ± 0.0095 |
| GTGTGTTGGG | 0.984 ± 0.026 |
| GTGTGTTTAG | 0.9892 ± 0.0058 |
| GTGTGTTTGC | 1.004 ± 0.0058 |
| GTGTTAAGGA | 0.995 ± 0.02 |
| GTGTTAAGGG | 0.979 ± 0.028 |
| GTGTTAAGTA | 1.0306 ± 0.00088 |
| GTGTTACGTT | 1.02 ± 0.021 |
| GTGTTAGCTA | 1 ± 0.011 |

| Sequence | switch fluorescence ratio |
| --- | --- |
| GTGTTAGGCT | 0.978 ± 0.012 |
| GTGTTAGGTT | 1.01 ± 0.017 |
| GTGTTCAAGG | 0.971 ± 0.015 |
| GTGTTCATCG | 0.973 ± 0.037 |
| GTGTTCGGGC | 1.02 ± 0.011 |
| GTGTTCTAAA | 1.03 ± 0.041 |
| GTGTTGGTAG | 0.984 ± 0.018 |
| GTGTTGGTTG | 0.982 ± 0.038 |
| GTGTTGGTTT | 0.986 ± 0.024 |
| GTGTTTAAAG | 0.98 ± 0.02 |
| GTGTTTAAGC | 0.978 ± 0.012 |
| GTGTTTATAG | 0.993 ± 0.018 |
| GTGTTTGGGA | 0.997 ± 0.033 |
| GTGTTTGGGG | 0.977 ± 0.023 |
| GTGTTTTCTT | 1.006 ± 0.0025 |
| GTTAAAAAGA | 1.08 ± 0.22 |
| GTTAAAAGGT | 1 ± 0.039 |
| GTTAAAAGTG | 0.987 ± 0.03 |
| GTTAAAATTT | 1.001 ± 0.0014 |
| GTTAAATCTT | 1 ± 0.042 |
| GTTAAGAAAG | 1.01 ± 0.012 |
| GTTAAGGATT | 1.03 ± 0.085 |
| GTTAAGGGGT | 1.007 ± 0.0026 |

| Sequence | switch fluorescence ratio |
| --- | --- |
| GTTAATGTCC | 0.994 ± 0.014 |
| GTTAATTACA | 1.026 ± 0.0096 |
| GTTACAGGTC | 1.006 ± 0.0019 |
| GTTACATTAA | 1.01 ± 0.021 |
| GTTACCCGA | 0.98 ± 0.016 |
| GTTACGGGGA | 1.02 ± 0.051 |
| GTTACTTGCC | 0.992 ± 0.039 |
| GTTACTTGCT | 1.01 ± 0.059 |
| GTTACTTTGT | 0.992 ± 0.0075 |
| GTTAGCACCC | 1.04 ± 0.04 |
| GTTAGCCTTG | 1 ± 0.039 |
| GTTAGGGCGG | 0.998 ± 0.042 |
| GTTAGGGTAG | 0.992 ± 0.025 |
| GTTAGGTAGC | 0.997 ± 0.011 |
| GTTAGTATTG | 0.998 ± 0.021 |
| GTTAGTCTGA | 1.01 ± 0.043 |
| GTTAGTGGCA | 0.984 ± 0.012 |
| GTTAGTGTGC | 0.984 ± 0.013 |
| GTTAGTTGGT | 0.993 ± 0.017 |
| GTTAGTTGTT | 0.987 ± 0.013 |
| GTTATAACCG | 0.993 ± 0.024 |
| GTTATAAGTC | 1.01 ± 0.026 |
| GTTATACATT | 1.02 ± 0.011 |

| Sequence | switch fluorescence ratio |
| --- | --- |
| GTTATACGAA | 1.028 ± 0.0085 |
| GTTATATAAG | 0.984 ± 0.011 |
| GTTATATATG | 1.015 ± 0.0029 |
| GTTATATGTT | 1 ± 0.03 |
| GTTATATTTG | 0.997 ± 0.031 |
| GTTATCCGGG | 1.01 ± 0.036 |
| GTTATCGGAC | 1.01 ± 0.015 |
| GTTATCGTGC | 0.992 ± 0.059 |
| GTTATGCCGG | 0.97 ± 0.094 |
| GTTATTAGCG | 0.969 ± 0.05 |
| GTTATTTTCC | 1.01 ± 0.071 |
| GTTCACGGGA | 1 ± 0.058 |
| GTTCAGAGGG | 1.05 ± 0.1 |
| GTTCATACGG | 1.06 ± 0.043 |
| GTTCCAGAGG | 1.03 ± 0.011 |
| GTTCCGCGGT | 1.371 ± 0.0055 |
| GTTCCTTGGA | 1.01 ± 0.045 |
| GTTCGACTCC | 1.15 ± 0.014 |
| GTTCGGAGTG | 0.9877 ± 0.0086 |
| GTTCGGCGAA | 1.02 ± 0.024 |
| GTTCGGGCTC | 1.03 ± 0.019 |
| GTTCGGGGAC | 1.026 ± 0.0094 |
| GTTCGGTATG | 0.984 ± 0.033 |

| Sequence | switch fluorescence ratio |
| --- | --- |
| GTTCGGTGGA | 1 ± 0.041 |
| GTTCGTGTGG | 0.987 ± 0.028 |
| GTTCTAGGGT | 0.9743 ± 0.0042 |
| GTTCTCTGGG | 0.987 ± 0.034 |
| GTTCTGATGT | 1.01 ± 0.029 |
| GTTCTTGTTC | 1.004 ± 0.0069 |
| GTTCTTTATC | 0.994 ± 0.018 |
| GTTCTTTTAT | 1.01 ± 0.024 |
| GTTGAAACAC | 1.02 ± 0.046 |
| GTTGAAGCCC | 1.013 ± 0.0071 |
| GTTGAATTAT | 0.987 ± 0.016 |
| GTTGACCTCG | 0.992 ± 0.03 |
| GTTGAGAGTC | 0.995 ± 0.038 |
| GTTGAGCTGG | 0.971 ± 0.019 |
| GTTGATAGGA | 0.988 ± 0.03 |
| GTTGATCCGA | 0.971 ± 0.013 |
| GTTGCAGGGG | 1.08 ± 0.013 |
| GTTGCAGTTC | 1.01 ± 0.034 |
| GTTGCGCGTC | 1.03 ± 0.024 |
| GTTGCGGTTG | 0.986 ± 0.039 |
| GTTGCTAGAG | 1.006 ± 0.0035 |
| GTTGCTAGTG | 0.973 ± 0.024 |
| GTTGCTTGCG | 1 ± 0.02 |

| Sequence | switch fluorescence ratio |
| --- | --- |
| GTTGGAAAGG | 0.97 ± 0.039 |
| GTTGGAATTG | 0.992 ± 0.024 |
| GTTGGACAGC | 1.01 ± 0.023 |
| GTTGGAGGA | 1.04 ± 0.061 |
| GTTGGAGGCT | 0.989 ± 0.096 |
| GTTGGAGTTT | 0.975 ± 0.016 |
| GTTGGATGCT | 0.949 ± 0.028 |
| GTTGGATTTG | 0.994 ± 0.017 |
| GTTGGCCGGC | 1.11 ± 0.073 |
| GTTGGCGACG | 0.946 ± 0.012 |
| GTTGGCTATT | 0.984 ± 0.007 |
| GTTGGGACGG | 0.9569 ± 0.006 |
| GTTGGGACGT | 0.973 ± 0.013 |
| GTTGGGCGGG | 0.991 ± 0.035 |
| GTTGGGGCAG | 0.961 ± 0.034 |
| GTTGGGGGGT | 0.989 ± 0.02 |
| GTTGGGTAGG | 0.963 ± 0.028 |
| GTTGGGTATT | 1.01 ± 0.021 |
| GTTGGGTTTG | 0.999 ± 0.026 |

— the supplement of paper PMC10126150
